The values that follow come from patent publication US20240245811A1, “ALPHA RA[…] ANALOGUE AND USE THEREOF IN METHODS OF TREATING CCKB RECEPTOR POSITIVE DISEASES” (Paul Scherrer Institut, priority 2020, published 2024).

Each structure is given as a SMILES string. Like-named read-outs stand apart in the source and are kept apart here.

Data set [1] has as its system A431/CCKBR tumors. Kind of data set: Therapy study in A431/CCKBR tumor-bearing nude mice. The class given is in vivo. Conditions: 30-120 kBq, all groups. How it is done:
For the therapy study, nude mice are subcutaneously injected with 5×10^6 A431/CCKBR cells on the left shoulder. […] The control group is injected with 100 μL PBS. Tumor diameters and mice weight are recorded daily during the working days. Tumor volume is calculated by using the formula formula V=(W^2×L)/2 (Faustino-Rocha et al. Lab Anim. 2013, 42(6), 217-224). Nude mice are sacrificed when the tumor volume exceeded 1.5 cm^3. The data are obtained from two sets of experiments including control, 30, 45, 60 kBq and control, 60, 90, 120 kBq treatment groups.
GraphPad Prism 7.00 for Windows was used for all statistical analysis. […] Log-rank (Mantel-Cox) test and Gehan-Breslow-Wilcoxon test are performed to compare different survival curves of treatment groups with the control group. Endpoints are defined as death in survival curves. Values of P<0.05 are considered statistically significant. The results are reported as mean±standard deviation of at least three independent replicates.

Data set [2] relates to A431/CCKBR tumors. Nature of the data set: Biodistribution study in A431/CCKBR xenografted nude mice. The class given is in vivo. As for the experimental part:
(§1) 1, 4, 24, 48 h and 7 days after administration of radiolabeled peptides, mice are sacrificed and the post mortem dissected tumors and organs are weighted and their activity is measured on a gamma counter (Packard Cobra II Auto Gamma, PerkinElmer, Switzerland).

Assay in data set [3]: as above
The class given is in vivo. Conditions: female, CD-1 nude, mouse, iv, total radioactivity; for tissue uptake at 4 h: 4 h post injection; for tissue uptake at 24 h: 24 h post injection; for tissue uptake at 48 h: 48 h post injection; for tissue uptake at 168 h: 7 days post injection. As for the experimental part: as §1

The next data set relates to A431/CCKBR cells. Kind of data set: Cell proliferation assay (CellTiter 96 AQueous). The class given is cell-based, human. Particulars: 24 h. As for the experimental part: Human epidermoid carcinoma A431 stable cell line that overexpress CCKBR, generated as previously described (Aloj et al., J Nucl Med 2004, 45(3), 485-94) can be cultured in DMEM, supplemented with 10% FBS (Bio Concept, Switzerland), 2 mM glutamine and antibiotics (0.1 mg/mL streptomycin, 100 IU penicillin) at 37° C. in a humidified incubator containing 5% CO2.
For the cell proliferation assay, 4×10^3 cells per well are seeded on the 96-well plates.
Cell proliferation can be analyzed using CellTiter 96 AQueous Non-Radioactive Cell Proliferation Kit (Promega AG, Switzerland) according to the manufacturer's instruction. Absorbance of formazan product is measured at 570 nm with a reference of 650 nm using a MicroPlate Reader (PerkinElmer, Switzerland). The absorbance of the control (untreated) cells is set as 100% cell viability. […] The assay is performed in triplicate.

The nature of data set [4]: Histological (HE) analysis of kidney and stomach after treatment. The class given is in vivo, nude mice. Conditions: 60 and 120 kBq groups, organs dissected between day 34 and 49.
For another data set, the target named is T1, CCKBR (Homo sapiens, UniProt P32239).
T1 sequence (P32239 1-447): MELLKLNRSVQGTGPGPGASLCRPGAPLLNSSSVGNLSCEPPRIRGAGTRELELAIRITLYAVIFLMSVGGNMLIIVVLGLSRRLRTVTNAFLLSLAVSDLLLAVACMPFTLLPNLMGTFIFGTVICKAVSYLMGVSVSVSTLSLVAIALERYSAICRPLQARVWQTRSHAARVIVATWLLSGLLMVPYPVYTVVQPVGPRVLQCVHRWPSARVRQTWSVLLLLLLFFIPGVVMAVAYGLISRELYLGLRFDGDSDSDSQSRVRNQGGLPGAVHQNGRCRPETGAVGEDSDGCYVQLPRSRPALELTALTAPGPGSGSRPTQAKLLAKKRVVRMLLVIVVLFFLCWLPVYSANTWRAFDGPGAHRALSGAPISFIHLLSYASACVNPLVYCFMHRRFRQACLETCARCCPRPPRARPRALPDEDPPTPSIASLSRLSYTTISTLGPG
Conditions: cited from earlier work.

Data set [5] concerns A431/CCKBR tumors. Kind of data set: SPECT/CT imaging with 111In-PP-F11N after 225Ac-PP-F11N treatment. Particulars: 13 MBq i.v., 2 h after injection, tumor-free mice after 45 or 60 kBq 225Ac-PP-F11N. The class given is in vivo, nude mice. An excerpt: Image reconstruction and processing is accomplished by using VivoQuant 3.0 Patch1 software.
Where [6] appears, read: 38 kBq, stomach, read-out: activity in stomach.
Setting [7] is: tumor (A431/CCKBR xenograft), 38 kBq, tumor, read-out: tumor uptake.

On to `CCCC[C@H](NC(=O)[C@H](Cc1c[nH]c2ccccc12)NC(=O)CNC(=O)[C@H](Cc1ccc(O)cc1)NC(=O)[C@H](C)NC(=O)[C@@H](CCC(=O)O)NC(=O)[C@@H](CCC(=O)O)NC(=O)[C@@H](CCC(=O)O)NC(=O)[C@@H](CCC(=O)O)NC(=O)[C@@H](CCC(=O)O)NC(=O)[C@@H](CCC(=O)O)NC(=O)CN1CCN(CC(=O)O)CCN(CC(=O)O)CCN(CC(=O)O)CC1)C(=O)N[C@@H](CC(=O)O)C(=O)N[C@@H](Cc1ccccc1)C(N)=O` [^225Ac-PP-F11N, metal not drawn], for which, in the data set on A431/CCKBR tumors [1], the “body weight and cytotoxicity symptoms during the treatment” value is reported as “no body weight losses or other cytotoxicity symptoms”. For the same compound, in the data set on A431/CCKBR tumors [2] (at analyzed time points), the “tumor-to-kidney and tumor-to-stomach ratios” value is on record as “excellent”. The “body or organ weights, general health or anatomy” value with A431/CCKBR tumors [2] (biodistribution study, 38 kBq) was “no significant differences in body or organ weights, general health or anatomy”. Also, the “activity level in the kidney” value in the data set on A431/CCKBR tumors [2] (kidney, 1 week post injection) was 1.2%; with A431/CCKBR tumors [2] (kidney, 48 h post injection), 3.8%. In the data set on A431/CCKBR tumors [2] (kidney, within the first four hours), the “decrease in accumulation in the kidney” value was found to be 50%. Moreover, the tissue uptake at 4 h in data set [3] (38 kBq, kidney, read-out: accumulation in the kidney) came out at 4.2 %ID/g; in data set [3] (setting [6]), 1.3 %ID/g; in data set [3] (setting [7]), 11.2 %ID/g. The tissue uptake at 1 h in data set [3] (38 kBq, kidney, start of the first four hours (1 h post injection), read-out: accumulation in the kidney) was 8.1 %ID/g; in data set [3] (38 kBq, stomach, 1 h post injection, read-out: activity in stomach), 1.5 %ID/g; in data set [3] (tumor (A431/CCKBR xenograft), tumor, 1 h post injection, 38 kBq i.v., read-out: tumor uptake), 13 %ID/g. In addition, the tissue uptake in data set [3] (38 kBq, liver and bone, all analyzed time points, read-out: non-specific uptake in the liver and bone) was under 2 %ID/g. Besides, the tissue uptake at 24 h in data set [3] (setting [6]) came to 1.2 %ID/g; in data set [3] (setting [7]) it was 7.2 %ID/g. The values for the tissue uptake at 48 h in data set [3] (setting [6]) and in data set [3] (setting [7]) were 0.8 %ID/g and 5.7 %ID/g, respectively. The figures for the tissue uptake at 168 h in data set [3] (setting [6]) and in data set [3] (setting [7]) were 0.3 %ID/g and 4.5 %ID/g, respectively. Besides, the “activity level at maximum cytotoxic effect (0% of cell viability)” value with A431/CCKBR cells is on record as 100 kBq/mL. In addition, in data set [4], the “HE stains of kidney and stomach versus control” value is recorded as “no signs of acute radiation toxicity”.

Take `CCCC[C@H](NC(=O)[C@H](Cc1c[nH]c2ccccc12)NC(=O)CNC(=O)[C@H](Cc1ccc(O)cc1)NC(=O)[C@H](C)NC(=O)[C@@H](CCC(=O)O)NC(=O)[C@@H](CCC(=O)O)NC(=O)[C@@H](CCC(=O)O)NC(=O)[C@@H](CCC(=O)O)NC(=O)[C@@H](CCC(=O)O)NC(=O)[C@@H](CCC(=O)O)NC(=O)CN1CCN(CC(=O)O)CCN(CC(=O)O)CCN(CC(=O)O)CC1)C(=O)N[C@@H](CC(=O)O)C(=O)N[C@@H](Cc1ccccc1)C(N)=O` [metal not drawn]: the “tumor uptake and kidney accumulation” value with CCKBR (WO 2015/067473 A1) is recorded as “good tumor uptake as well as low accumulation in the kidneys”. The “accumulation in healthy tissues” value with CCKBR (recent studies (Sauter 2019, Rottenburger 2020)) is listed as “can accumulate in healthy tissues (i.e. in the stomach)”.

For `CCCC[C@H](NC(=O)[C@H](Cc1c[nH]c2ccccc12)NC(=O)CNC(=O)[C@H](Cc1ccc(O)cc1)NC(=O)[C@H](C)NC(=O)[C@@H](CCC(=O)O)NC(=O)[C@@H](CCC(=O)O)NC(=O)[C@@H](CCC(=O)O)NC(=O)[C@@H](CCC(=O)O)NC(=O)[C@@H](CCC(=O)O)NC(=O)[C@@H](CCC(=O)O)NC(=O)CN1CCN(CC(=O)O)CCN(CC(=O)O)CCN(CC(=O)O)CC1)C(=O)N[C@@H](CC(=O)O)C(=O)N[C@@H](Cc1ccccc1)C(N)=O` [^111In-PP-F11N, metal not drawn], the “location of radioactive signals on SPECT/CT” value in the data set with A431/CCKBR tumors [5] is “only detected in the excretion organs including kidneys and bladder”.
